# Earlier results, collected in patent publication US20190275108A1, “COMPOSITIONS IN THE FORM OF AN INJECTABLE AQUEOUS SOLUTION COMPRISING AMYLIN, AN AMYLIN RECEPTOR AGONIST OR AN AMYLIN ANALOGUE AND A CO-POLYAMINO ACID” (ADOCIA, priority 2017, published 2019).
# Where two headings read alike, the source gives them in different places.
substance,measurement,setting,value
"amylin: peptide of 37 amino acids, co-stored and co-secreted with insulin (KCNTATCATQRLANFLVHSSNNFGAILSSTNVGSNTY; Islet amyloid polypeptide; UniProt P10997 34-70, looked up)",Time for which amylin is stable,acidic pH,about fifteen
same,Time for which amylin is stable,neutral pH,less than a minute
